Measurements published in paper PMC12375970, “Probing the extent of importin‐α targeting of the TAF8 NLS by eliminating its cationic net‐charge” (Protein Science : A Publication of the Protein Society, 2025).
Read-outs that look alike come from different tables or passages of the source.

How the values were obtained:
[1] = molecular target: mouse importin‐α paralog 2 (mImpα2) lacking the importin‐β‐binding (IBB) domain, residues 70–529 (mouse) (UniProt P52293); experiment: MST; Monolith NT.115; RED‐NHS‐labelled mImpα2 at 60 nM titrated against NLS peptide 250 μM–7.6 nM; 20 mM Tris–HCl, 127 mM NaCl, pH 8.0, 0.5% Tween‐20; one‐binding site and two‐binding site model fits; apparent
[2] = molecular target: importin-alpha (Homo sapiens) (UniProt P52292); experiment: ITC; settings: cited from earlier work
[3] = molecular target: murine importin-α isoform 2 (mImpα2) lacking the importin-β-binding (IBB) domain (mouse) (UniProt P52293); experiment: MST; Monolith NT.115; RED-NHS-labelled mImpα2 at 60 nM titrated against a serial 1:1 dilution (250 µM-7.6 nM) of NLS peptide with 0.5% Tween-20; 20 mM Tris-HCl, 127 mM NaCl, pH 8.0; three repeats, mean ± SD; fitted with one-binding-site, two-binding-site and Hill models; apparent affinity
importin-beta = importin-beta (UniProt Q14974); settings: cited from earlier work
[4] = molecular target: importin-alpha (Homo sapiens) (UniProt P52292); settings: cited from earlier work

importin-beta, sequence (Q14974 whole entry): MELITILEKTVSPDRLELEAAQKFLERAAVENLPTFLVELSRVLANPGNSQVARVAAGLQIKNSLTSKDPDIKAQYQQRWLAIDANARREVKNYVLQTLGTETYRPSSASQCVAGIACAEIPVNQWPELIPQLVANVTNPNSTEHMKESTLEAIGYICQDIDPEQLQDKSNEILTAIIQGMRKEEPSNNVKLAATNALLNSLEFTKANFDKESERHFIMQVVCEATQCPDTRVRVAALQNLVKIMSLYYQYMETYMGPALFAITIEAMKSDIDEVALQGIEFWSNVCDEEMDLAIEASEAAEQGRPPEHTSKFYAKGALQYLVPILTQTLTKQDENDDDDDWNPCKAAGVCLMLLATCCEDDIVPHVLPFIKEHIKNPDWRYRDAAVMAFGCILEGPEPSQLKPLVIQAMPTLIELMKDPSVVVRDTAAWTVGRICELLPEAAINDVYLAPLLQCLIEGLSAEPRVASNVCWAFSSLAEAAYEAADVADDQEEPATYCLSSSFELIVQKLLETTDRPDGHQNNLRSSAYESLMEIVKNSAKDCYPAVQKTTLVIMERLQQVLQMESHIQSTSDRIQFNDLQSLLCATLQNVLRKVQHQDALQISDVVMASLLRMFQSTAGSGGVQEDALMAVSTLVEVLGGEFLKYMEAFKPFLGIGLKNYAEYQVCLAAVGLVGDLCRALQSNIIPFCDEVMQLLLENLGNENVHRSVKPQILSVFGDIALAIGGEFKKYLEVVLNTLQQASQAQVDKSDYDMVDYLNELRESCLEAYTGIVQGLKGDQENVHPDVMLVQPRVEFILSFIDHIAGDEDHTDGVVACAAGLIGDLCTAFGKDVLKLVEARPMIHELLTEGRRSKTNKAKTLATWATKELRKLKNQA

TAF8 NLS peptide (TAF8 residues 297–305, …)
KD1 (site 1, two‐binding site model) [1]: 1 µM | KD2 (site 2, two‐binding site model) [1]: 1 µM

TAF8 NLS 297-310 (from UniProt Q7Z7C8)
Kd [2]: 10.4 µM

TAF8 NLS peptide (…, residues 297-305)
Kd [3]: 1.21 µM

importin-alpha IBB domain IBB (from UniProt P52292)
Kd (importin-beta): 0.01 µM | Kd [4]: 14 µM
